Target: T1, microtubules (polymerized porcine tubulin) (porcine, UniProt P02550 1-451; P02554 1-445)
T1 construct: alpha-tubulin of porcine tubulin; beta-tubulin of porcine tubulin; Polymer of alpha/beta-tubulin dimers; 14-protofilament MTs were selected for cryo-EM; The species is stated only for the co-sedimentation assay; also called MT; MTs; source: porcine tubulin, polymerized (stabilised with 10 uM paclitaxel for co-sedimentation; GMPCPP-MT for cryo-EM)
Assay: co-sedimentation; purified MTBDs (1-32 uM) mixed with 5 uM paclitaxel-stabilised porcine MTs; 100 mM PIPES pH 6.8, 50 mM NaCl, 2 mM MgCl2, 1 mM EGTA; 210,000 x g, 25 °C, 10 min; pellets on SDS-PAGE, densitometry, one-site curve fitting
Conditions: both partners purified

B1: MTBD-Low, MTBD(S3097C/V3222C) (domain or fragment)
chain: KCIQDIEPTILEAQRGVKNIKKQQLTEIRSMVNPPSGVKIVMEAVCAILGYQFSNWRDIQQFIRKDDFIHNIVHYDTTLHMKPQIRKYMEEEFLSDPNFTYETINRASKACGPLYQWVNAQINFSKCLENVDPLRQE
modifications: intramolecular disulfide bond between C3097 (CC1) and C3222 (CC2)
Kd: > 200 µM

From article PMC7042235, “Structural basis for two-way communication between dynein and microtubules” (Nature Communications, 2020)
